Test results from US20210130436A1.
Blank lines part the entries; values can stand above or below the substance they belong to.

Legend:
PD-L1 (human) = PD-L1 (human) (UniProt Q9NZQ7); assay: cell-based or functional assay
CD28 (human) = CD28 (human) (UniProt P10747); assay: cell-based or functional assay

Chain of WT CD80 ECD-Fc (inert) (Fc fusion) (chain): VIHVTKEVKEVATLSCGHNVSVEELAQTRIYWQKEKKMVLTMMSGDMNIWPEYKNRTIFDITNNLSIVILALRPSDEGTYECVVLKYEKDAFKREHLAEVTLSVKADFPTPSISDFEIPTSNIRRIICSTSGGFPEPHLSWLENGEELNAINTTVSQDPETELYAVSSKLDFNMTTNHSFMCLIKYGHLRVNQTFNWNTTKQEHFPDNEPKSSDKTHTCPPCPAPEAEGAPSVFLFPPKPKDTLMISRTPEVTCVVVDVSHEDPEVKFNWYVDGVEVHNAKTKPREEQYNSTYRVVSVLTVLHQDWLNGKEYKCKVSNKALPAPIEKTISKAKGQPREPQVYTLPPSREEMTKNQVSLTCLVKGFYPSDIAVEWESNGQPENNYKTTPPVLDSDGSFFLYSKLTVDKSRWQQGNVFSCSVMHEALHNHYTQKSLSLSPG
Chain of WT CD80 IgV-Fc (inert) (Fc fusion) (chain): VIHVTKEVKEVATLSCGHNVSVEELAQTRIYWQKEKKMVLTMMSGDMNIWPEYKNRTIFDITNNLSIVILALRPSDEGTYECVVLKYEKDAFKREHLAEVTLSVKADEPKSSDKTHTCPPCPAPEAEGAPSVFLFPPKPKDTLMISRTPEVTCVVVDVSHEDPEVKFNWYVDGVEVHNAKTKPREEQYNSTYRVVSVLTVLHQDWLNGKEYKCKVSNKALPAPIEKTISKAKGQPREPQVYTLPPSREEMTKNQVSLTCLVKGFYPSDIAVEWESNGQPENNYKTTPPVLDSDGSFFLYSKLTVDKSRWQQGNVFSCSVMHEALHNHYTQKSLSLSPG
Chain of PD-L1 (human) (Q9NZQ7 19-290): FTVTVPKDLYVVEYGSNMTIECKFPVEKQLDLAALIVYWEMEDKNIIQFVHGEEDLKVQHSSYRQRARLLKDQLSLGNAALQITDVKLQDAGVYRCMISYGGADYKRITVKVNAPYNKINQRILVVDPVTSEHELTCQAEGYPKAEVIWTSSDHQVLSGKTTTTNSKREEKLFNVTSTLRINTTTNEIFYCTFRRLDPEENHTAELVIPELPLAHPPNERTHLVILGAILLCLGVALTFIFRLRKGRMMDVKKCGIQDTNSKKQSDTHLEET

IL-2 release, primary T cells; K562/OKT3/PD-L1; 100 nM (PD-L1 (human)): 52
IL-2-luciferase RLU, Jurkat + CHO/OKT3/PD-L1 aAPC, 0.6 nM (CD28 (human)): 458 RLU
IL-2-luciferase RLU, Jurkat + CHO/OKT3/PD-L1 aAPC, 1.9 nM (CD28 (human)): 486 RLU
IL-2-luciferase RLU, Jurkat + CHO/OKT3/PD-L1 aAPC, 5.6 nM (CD28 (human)): 511 RLU
IL-2-luciferase RLU, Jurkat + CHO/OKT3/PD-L1 aAPC, 50 nM (CD28 (human)): 483 RLU
IL-2-luciferase RLU, Jurkat + CHO/OKT3 aAPC (no PD-L1), 5.6 nM (CD28 (human)): 450 RLU
IL-2-luciferase RLU, Jurkat + CHO/OKT3 aAPC (no PD-L1), 16.7 nM (CD28 (human)): 444 RLU
IL-2-luciferase RLU, Jurkat + CHO/OKT3 aAPC (no PD-L1), 50 nM (CD28 (human)): 479 RLU
IL-2-luciferase RLU, Jurkat + K562/OKT3/PD-L1 aAPC, 50 nM (CD28 (human)): 566 RLU
Substance: WT CD80 IgV-Fc (inert) (Fc fusion)

RLU, Jurkat/IL2 reporter; K562/OKT3/PD-L1 aAPC, Combination of FcR and/or PD-L1 Dependent Cross-Linking; 0.6 nM (PD-L1 (human)): 2240 RLU
RLU, Jurkat/IL2 reporter; K562/OKT3/PD-L1 aAPC, Combination of FcR and/or PD-L1 Dependent Cross-Linking; 1.9 nM (PD-L1 (human)): 2690 RLU
RLU, Jurkat/IL2 reporter; K562/OKT3/PD-L1 aAPC, Combination of FcR and/or PD-L1 Dependent Cross-Linking; 5.6 nM (PD-L1 (human)): 3650 RLU
RLU, Jurkat/IL2 reporter; K562/OKT3/PD-L1 aAPC, Combination of FcR and/or PD-L1 Dependent Cross-Linking; 16.7 nM (PD-L1 (human)): 3910 RLU
RLU, Jurkat/IL2 reporter; K562/OKT3/PD-L1 aAPC, Combination of FcR and/or PD-L1 Dependent Cross-Linking; 50 nM (PD-L1 (human)): 3870 RLU
IL-2 release, primary T cells; K562/OKT3 (No PD-L1); 1 nM (CD28 (human)): 15700
IL-2 release, primary T cells; K562/OKT3 (No PD-L1); 10 nM (CD28 (human)): 26000
IL-2 release, primary T cells; K562/OKT3 (No PD-L1); 100 nM (CD28 (human)): 25300
RLU, Jurkat/IL2 reporter; K562/OKT3 aAPC, FcR Dependent Cross-Linking (No PD-L1); 0.6 nM (CD28 (human)): 1610 RLU
RLU, Jurkat/IL2 reporter; K562/OKT3 aAPC, FcR Dependent Cross-Linking (No PD-L1); 1.9 nM (CD28 (human)): 2520 RLU
RLU, Jurkat/IL2 reporter; K562/OKT3 aAPC, FcR Dependent Cross-Linking (No PD-L1); 5.6 nM (CD28 (human)): 4230 RLU
RLU, Jurkat/IL2 reporter; K562/OKT3 aAPC, FcR Dependent Cross-Linking (No PD-L1); 16.7 nM (CD28 (human)): 5370 RLU
RLU, Jurkat/IL2 reporter; K562/OKT3 aAPC, FcR Dependent Cross-Linking (No PD-L1); 50 nM (CD28 (human)): 5780 RLU
Substance: variant CD80 IgV-Fc (effector) E35D/M47I/L70M (Fc fusion)

IL-2 release, primary T cells; K562/OKT3/PD-L1; 100 nM (PD-L1 (human)): 102
IL-2-luciferase RLU, Jurkat + CHO/OKT3/PD-L1 aAPC, 0.6 nM (CD28 (human)): 524 RLU
IL-2-luciferase RLU, Jurkat + CHO/OKT3/PD-L1 aAPC, 5.6 nM (CD28 (human)): 659 RLU
IL-2-luciferase RLU, Jurkat + CHO/OKT3/PD-L1 aAPC, 16.7 nM (CD28 (human)): 689 RLU
IL-2-luciferase RLU, Jurkat + CHO/OKT3/PD-L1 aAPC, 50 nM (CD28 (human)): 695 RLU
IL-2-luciferase RLU, Jurkat + CHO/OKT3 aAPC (no PD-L1), 5.6 nM (CD28 (human)): 566 RLU
IL-2-luciferase RLU, Jurkat + CHO/OKT3 aAPC (no PD-L1), 16.7 nM (CD28 (human)): 560 RLU
IL-2-luciferase RLU, Jurkat + CHO/OKT3 aAPC (no PD-L1), 50 nM (CD28 (human)): 606 RLU
Substance: variant CD80 IgV-Fc (inert) E23G/A26S/E35D/T62N/A71D/L72V/L85M (Fc fusion)

Jurkat/IL2 + CHO/OKT3/PD-L1 reporter assay, RLU at CD80 Conc 5.0 nM (PD-L1 (human)): 1410 RLU
Substance: CD80 IgV-Fc E35D/D46E/L85M (from UniProt P33681 35-141) (Fc fusion)

The next lines start with the substance.

Substance: WT CD80 ECD-Fc (inert) (Fc fusion)
RLU, Jurkat/IL2 reporter; K562/OKT3/PD-L1 aAPC, Combination of FcR and/or PD-L1 Dependent Cross-Linking; 0.6 nM (PD-L1 (human)): 692 RLU
RLU, Jurkat/IL2 reporter; K562/OKT3/PD-L1 aAPC, Combination of FcR and/or PD-L1 Dependent Cross-Linking; 1.9 nM (PD-L1 (human)): 705 RLU
RLU, Jurkat/IL2 reporter; K562/OKT3/PD-L1 aAPC, Combination of FcR and/or PD-L1 Dependent Cross-Linking; 5.6 nM (PD-L1 (human)): 847 RLU
RLU, Jurkat/IL2 reporter; K562/OKT3/PD-L1 aAPC, Combination of FcR and/or PD-L1 Dependent Cross-Linking; 16.7 nM (PD-L1 (human)): 875 RLU
RLU, Jurkat/IL2 reporter; K562/OKT3/PD-L1 aAPC, Combination of FcR and/or PD-L1 Dependent Cross-Linking; 50 nM (PD-L1 (human)): 1520 RLU
IL-2-luciferase RLU, Jurkat + CHO/OKT3/PD-L1 aAPC, 0.6 nM (CD28 (human)): 518 RLU
IL-2-luciferase RLU, Jurkat + CHO/OKT3/PD-L1 aAPC, 1.9 nM (CD28 (human)): 474 RLU
IL-2-luciferase RLU, Jurkat + CHO/OKT3/PD-L1 aAPC, 5.6 nM (CD28 (human)): 505 RLU
IL-2-luciferase RLU, Jurkat + CHO/OKT3/PD-L1 aAPC, 16.7 nM (CD28 (human)): 462 RLU
IL-2-luciferase RLU, Jurkat + CHO/OKT3 aAPC (no PD-L1), 5.6 nM (CD28 (human)): 436 RLU
IL-2-luciferase RLU, Jurkat + CHO/OKT3 aAPC (no PD-L1), 16.7 nM (CD28 (human)): 412 RLU
IL-2-luciferase RLU, Jurkat + CHO/OKT3 aAPC (no PD-L1), 50 nM (CD28 (human)): 420 RLU
IL-2 release, primary T cells; K562/OKT3 (No PD-L1); 1 nM (CD28 (human)): 8050
IL-2 release, primary T cells; K562/OKT3 (No PD-L1); 10 nM (CD28 (human)): 7020
IL-2 release, primary T cells; K562/OKT3 (No PD-L1); 100 nM (CD28 (human)): 6480
RLU, Jurkat/IL2 reporter; K562/OKT3 aAPC, FcR Dependent Cross-Linking (No PD-L1); 0.6 nM (CD28 (human)): 1340 RLU
RLU, Jurkat/IL2 reporter; K562/OKT3 aAPC, FcR Dependent Cross-Linking (No PD-L1); 1.9 nM (CD28 (human)): 1270 RLU
RLU, Jurkat/IL2 reporter; K562/OKT3 aAPC, FcR Dependent Cross-Linking (No PD-L1); 5.6 nM (CD28 (human)): 1480 RLU
RLU, Jurkat/IL2 reporter; K562/OKT3 aAPC, FcR Dependent Cross-Linking (No PD-L1); 16.7 nM (CD28 (human)): 1730 RLU
RLU, Jurkat/IL2 reporter; K562/OKT3 aAPC, FcR Dependent Cross-Linking (No PD-L1); 50 nM (CD28 (human)): 2200 RLU

Substance: CD80 IgV-Fc (inert) H18Y/A26Q/E35D/M47T/V68M/A71G/D90G (from UniProt P33681 35-141) (Fc fusion)
RLU, Jurkat/IL2 + CHO/OKT3/PD-L1 Reporter Assay, CD80 Conc 5.0 nM (PD-L1 (human)): 994 RLU

Substance: CD80 IgV-Fc E35D/L97R (from UniProt P33681 35-141) (Fc fusion)
Jurkat/IL2 + CHO/OKT3/PD-L1 reporter assay, RLU at CD80 Conc 5.0 nM (PD-L1 (human)): 914 RLU
